Data on 3 molecules can be found in patent US20240409650A1 (ARMAGEN, published 2024).

In general, EC50 refers to the concentration at which the effect is half-maximal.

Assay [1] concerns the target T1, HIR extracellular domain (ECD) (human, UniProt P06213 28-956, limits assumed).
T1 construct: extracellular domain; also called HIR ECD; IR ECD
The experiment in a line: ELISA on plated HIR ECD; ED50 normalised with a MW of 375 kDa. In general terms: An ELISA detects its analyte on a solid surface through an enzyme-linked reagent.

For assay [2], the target named is T1, HIR extracellular domain (ECD). As to the kind of experiment: ELISA, HIR ECD plated on Nunc-Maxisorb wells, biotinylated goat anti-human IgG detection; ED50 by inspection.
Assay [3] has the same target. As to the kind of experiment: ELISA on lectin affinity purified HIR ECD; printed as ED50, non-linear regression.
Assay [4] shares this target. As to the kind of experiment: ELISA on plated HIR ECD; ED50 normalised with a MW of 150 kDa.
For assay [5] the target is unchanged. The experiment in a line: ELISA on HIR ECD; ED50 normalised with a MW of 150 kDa.
The target is the same in assay [6]. The experiment in a line: ELISA on HIR ECD (FIG. 17); the same 166 ng/mL ED50 normalised with a MW of 375 kDa.
Assay [7] has the same target. As to the kind of experiment: ELISA on HIR ECD; ED50 normalised with a MW of 350 kDa.

B1: HIRMAb-L-NAGLU fusion protein (23 amino acid L linker) (antibody, human IgG1, human IgG3, kappa)
heavy: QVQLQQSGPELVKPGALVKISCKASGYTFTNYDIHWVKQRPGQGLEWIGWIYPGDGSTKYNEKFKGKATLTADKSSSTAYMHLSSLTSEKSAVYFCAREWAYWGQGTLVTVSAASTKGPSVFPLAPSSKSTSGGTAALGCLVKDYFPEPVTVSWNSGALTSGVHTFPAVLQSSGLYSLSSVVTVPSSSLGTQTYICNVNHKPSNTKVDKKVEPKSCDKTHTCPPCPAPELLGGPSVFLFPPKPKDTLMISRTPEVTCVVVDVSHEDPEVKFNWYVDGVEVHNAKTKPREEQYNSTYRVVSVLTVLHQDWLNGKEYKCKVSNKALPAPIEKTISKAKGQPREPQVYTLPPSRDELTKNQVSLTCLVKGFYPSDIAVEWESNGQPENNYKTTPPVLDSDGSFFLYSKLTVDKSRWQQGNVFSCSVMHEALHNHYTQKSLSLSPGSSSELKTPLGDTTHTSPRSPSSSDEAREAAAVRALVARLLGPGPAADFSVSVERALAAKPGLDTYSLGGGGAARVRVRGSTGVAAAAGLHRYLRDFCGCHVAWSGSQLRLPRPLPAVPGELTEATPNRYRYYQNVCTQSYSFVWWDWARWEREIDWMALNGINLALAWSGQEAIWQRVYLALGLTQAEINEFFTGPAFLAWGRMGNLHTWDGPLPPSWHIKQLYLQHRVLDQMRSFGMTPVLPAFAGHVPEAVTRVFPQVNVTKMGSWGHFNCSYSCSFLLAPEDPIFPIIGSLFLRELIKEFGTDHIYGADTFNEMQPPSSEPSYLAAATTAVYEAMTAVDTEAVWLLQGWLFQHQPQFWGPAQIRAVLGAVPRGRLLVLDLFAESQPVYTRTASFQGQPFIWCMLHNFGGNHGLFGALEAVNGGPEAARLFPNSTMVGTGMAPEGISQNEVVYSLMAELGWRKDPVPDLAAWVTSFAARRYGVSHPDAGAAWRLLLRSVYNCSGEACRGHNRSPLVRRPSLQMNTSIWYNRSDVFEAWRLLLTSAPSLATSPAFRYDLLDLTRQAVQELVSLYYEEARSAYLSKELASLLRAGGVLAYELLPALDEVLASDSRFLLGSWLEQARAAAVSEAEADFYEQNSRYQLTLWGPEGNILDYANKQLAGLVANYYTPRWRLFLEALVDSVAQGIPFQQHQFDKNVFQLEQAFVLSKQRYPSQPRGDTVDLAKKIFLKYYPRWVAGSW
light: DIQMTQSPSSLSASLGERVSLTCRASQDIGGNLYWLQQGPDGTIKRLIYATSSLDSGVPKRFSGSRSGSDYSLTISSLESEDFVDYYCLQYSSSPWTFGGGTKLEIKRTVAAPSVFIFPPSDEQLKSGTASVVCLLNNFYPREAKVQWKVDNALQSGNSQESVTEQDSKDSTYSLSSTLTLSKADYEKHKVYACEVTHQGLSSPVTKSFNRGEC
notes: COS-derived (transient expression), purified on protein A. Hetero-tetramer; also called HIR Ab-L-NAGLU fusion protein; IgG-L-NAGLU
Regarding B1, the values for the EC50 in assay [1] and in assay [2] were 0.93 nM and 0.35 µg/mL, respectively.

B2: chimeric HIRMAb (chimeric monoclonal antibody against the human insulin receptor) (antibody, human IgG1, kappa)
heavy: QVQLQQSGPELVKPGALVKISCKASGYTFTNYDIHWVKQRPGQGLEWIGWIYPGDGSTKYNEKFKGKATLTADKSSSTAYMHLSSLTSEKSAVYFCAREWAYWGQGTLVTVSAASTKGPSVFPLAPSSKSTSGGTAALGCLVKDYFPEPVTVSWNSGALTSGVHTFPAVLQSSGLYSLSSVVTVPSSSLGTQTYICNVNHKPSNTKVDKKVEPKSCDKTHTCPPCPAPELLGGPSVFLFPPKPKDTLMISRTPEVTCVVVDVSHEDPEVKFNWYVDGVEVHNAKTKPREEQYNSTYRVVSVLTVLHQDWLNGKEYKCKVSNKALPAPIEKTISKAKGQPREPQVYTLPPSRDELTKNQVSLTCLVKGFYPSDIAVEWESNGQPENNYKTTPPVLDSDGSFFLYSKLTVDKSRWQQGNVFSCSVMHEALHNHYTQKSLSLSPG
light: B1 light
notes: also called HIR Ab; HIRMAb alone
Turning to B2, the EC50 came to 0.065 µg/mL in assay [2], 0.043 µg/mL in assay [3], 0.43 nM in assay [4] and 0.29 nM in assay [5].

B3: HIRMAb-LL-NAGLU fusion protein (31 amino acid LL linker) (antibody, human IgG1, human IgG3, kappa)
heavy: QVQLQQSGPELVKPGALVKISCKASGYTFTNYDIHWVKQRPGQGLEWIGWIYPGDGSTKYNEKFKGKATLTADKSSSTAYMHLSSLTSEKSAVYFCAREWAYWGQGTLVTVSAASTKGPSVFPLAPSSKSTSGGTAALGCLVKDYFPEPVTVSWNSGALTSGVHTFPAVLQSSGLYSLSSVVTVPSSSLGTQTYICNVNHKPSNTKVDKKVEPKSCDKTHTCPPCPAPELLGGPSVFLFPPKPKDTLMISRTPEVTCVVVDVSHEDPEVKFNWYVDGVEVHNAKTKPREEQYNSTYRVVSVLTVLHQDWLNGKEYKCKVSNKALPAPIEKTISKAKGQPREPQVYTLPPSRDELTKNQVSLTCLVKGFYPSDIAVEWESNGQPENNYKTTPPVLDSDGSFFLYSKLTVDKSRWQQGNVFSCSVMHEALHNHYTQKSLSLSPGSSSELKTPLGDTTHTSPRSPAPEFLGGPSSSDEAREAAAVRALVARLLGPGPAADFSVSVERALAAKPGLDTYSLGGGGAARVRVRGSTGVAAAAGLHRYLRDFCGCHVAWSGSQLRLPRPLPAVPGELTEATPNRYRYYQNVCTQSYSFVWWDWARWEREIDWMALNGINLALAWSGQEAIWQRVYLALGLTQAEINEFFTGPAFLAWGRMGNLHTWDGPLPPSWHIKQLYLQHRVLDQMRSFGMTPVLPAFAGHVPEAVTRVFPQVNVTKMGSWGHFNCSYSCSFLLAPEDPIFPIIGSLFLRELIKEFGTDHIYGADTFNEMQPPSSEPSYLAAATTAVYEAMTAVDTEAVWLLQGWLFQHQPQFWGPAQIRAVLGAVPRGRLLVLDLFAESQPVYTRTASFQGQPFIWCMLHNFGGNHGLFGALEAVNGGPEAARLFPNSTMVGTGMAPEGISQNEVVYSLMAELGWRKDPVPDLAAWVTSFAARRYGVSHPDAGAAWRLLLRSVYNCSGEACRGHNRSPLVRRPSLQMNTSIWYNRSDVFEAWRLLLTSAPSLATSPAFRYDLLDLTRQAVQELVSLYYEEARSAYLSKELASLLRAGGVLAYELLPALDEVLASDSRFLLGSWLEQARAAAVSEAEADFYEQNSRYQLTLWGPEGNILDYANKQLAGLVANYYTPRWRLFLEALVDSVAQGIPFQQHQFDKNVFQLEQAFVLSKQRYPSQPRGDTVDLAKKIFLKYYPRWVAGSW
light: B1 light
notes: also called HIR Ab HC-LL-NAGLU; printed in places as HIRMAb-NAGLU or HIR Ab-NAGLU fusion protein
Take B3: the EC50 came out at 0.44 nM in assay [6], 0.166 µg/mL in assay [3] and 0.47 nM in assay [7].
